Patent US12630600B2 (MEDIMMUNE LIMITED, priority 2022, dated 2026)
Starred links: 1 amine or outer side, 2 acyl side, 3 side chain; linkers in the order of their positions; H or OH if unused. Non-standard residues stand in square brackets, D forms with d. Groups on a side chain read outwards from the residue. No end group written: not given here. *: point of attachment. C18 diacid = O=C(O)CCCCCCCCCCCCCCCCC(=O)*; γGlu = O=C(O)[C@H](CCC(=O)[*:2])N[*:1]; αMeF = C[C@](N)(Cc1ccccc1)C(=O)O; AEEA = NCCOCCOCC(=O)O; Aib = CC(C)(N)C(=O)O

B1: Peptide 424 (peptide)
peptide: H[Aib]QGTFTSDVSK[αMeF]LDKK([AEEA-AEEA-γGlu-C18 diacid])RAQDFVRWLL[Aib]TK-OH
modifications: N-terminus assumed
SMILES: CC(C)C[C@H](NC(=O)[C@H](Cc1c[nH]c2ccccc12)NC(=O)[C@H](CCCNC(=N)N)NC(=O)[C@@H](NC(=O)[C@H](Cc1ccccc1)NC(=O)[C@H](CC(=O)O)NC(=O)[C@H](CCC(N)=O)NC(=O)[C@H](C)NC(=O)[C@H](CCCNC(=N)N)NC(=O)[C@H](CCCCNC(=O)COCCOCCNC(=O)COCCOCCNC(=O)CC[C@H](NC(=O)CCCCCCCCCCCCCCCCC(=O)O)C(=O)O)NC(=O)[C@H](CCCCN)NC(=O)[C@H](CC(=O)O)NC(=O)[C@H](CC(C)C)NC(=O)[C@](C)(Cc1ccccc1)NC(=O)[C@H](CCCCN)NC(=O)[C@H](CO)NC(=O)[C@@H](NC(=O)[C@H](CC(=O)O)NC(=O)[C@H](CO)NC(=O)[C@@H](NC(=O)[C@H](Cc1ccccc1)NC(=O)[C@@H](NC(=O)CNC(=O)[C@H](CCC(N)=O)NC(=O)C(C)(C)NC(=O)[C@@H](N)Cc1c[nH]cn1)[C@@H](C)O)[C@@H](C)O)C(C)C)C(C)C)C(=O)N[C@@H](CC(C)C)C(=O)NC(C)(C)C(=O)N[C@H](C(=O)N[C@@H](CCCCN)C(=O)O)[C@@H](C)O
B2: Peptide 426 (peptide)
peptide: H[Aib]QGTFTSDVSK[αMeF]LDKK([AEEA-AEEA-γGlu-C18 diacid])RAQDFVRWLLR[Aib]K-OH
modifications: N-terminus assumed
SMILES: CC(C)C[C@H](NC(=O)[C@H](Cc1c[nH]c2ccccc12)NC(=O)[C@H](CCCNC(=N)N)NC(=O)[C@@H](NC(=O)[C@H](Cc1ccccc1)NC(=O)[C@H](CC(=O)O)NC(=O)[C@H](CCC(N)=O)NC(=O)[C@H](C)NC(=O)[C@H](CCCNC(=N)N)NC(=O)[C@H](CCCCNC(=O)COCCOCCNC(=O)COCCOCCNC(=O)CC[C@H](NC(=O)CCCCCCCCCCCCCCCCC(=O)O)C(=O)O)NC(=O)[C@H](CCCCN)NC(=O)[C@H](CC(=O)O)NC(=O)[C@H](CC(C)C)NC(=O)[C@](C)(Cc1ccccc1)NC(=O)[C@H](CCCCN)NC(=O)[C@H](CO)NC(=O)[C@@H](NC(=O)[C@H](CC(=O)O)NC(=O)[C@H](CO)NC(=O)[C@@H](NC(=O)[C@H](Cc1ccccc1)NC(=O)[C@@H](NC(=O)CNC(=O)[C@H](CCC(N)=O)NC(=O)C(C)(C)NC(=O)[C@@H](N)Cc1c[nH]cn1)[C@@H](C)O)[C@@H](C)O)C(C)C)C(C)C)C(=O)N[C@@H](CC(C)C)C(=O)N[C@@H](CCCNC(=N)N)C(=O)NC(C)(C)C(=O)N[C@@H](CCCCN)C(=O)O
B3: Peptide 428 (peptide)
peptide: H[Aib]QGTFTSDVSK[αMeF]LDTK([AEEA-AEEA-γGlu-γGlu-C18 diacid])RARDFVQWLLE[Aib]G-NH2
modifications: N-terminus assumed
SMILES: CC(C)C[C@H](NC(=O)[C@H](Cc1c[nH]c2ccccc12)NC(=O)[C@H](CCC(N)=O)NC(=O)[C@@H](NC(=O)[C@H](Cc1ccccc1)NC(=O)[C@H](CC(=O)O)NC(=O)[C@H](CCCNC(=N)N)NC(=O)[C@H](C)NC(=O)[C@H](CCCNC(=N)N)NC(=O)[C@H](CCCCNC(=O)COCCOCCNC(=O)COCCOCCNC(=O)CC[C@H](NC(=O)CC[C@H](NC(=O)CCCCCCCCCCCCCCCCC(=O)O)C(=O)O)C(=O)O)NC(=O)[C@@H](NC(=O)[C@H](CC(=O)O)NC(=O)[C@H](CC(C)C)NC(=O)[C@](C)(Cc1ccccc1)NC(=O)[C@H](CCCCN)NC(=O)[C@H](CO)NC(=O)[C@@H](NC(=O)[C@H](CC(=O)O)NC(=O)[C@H](CO)NC(=O)[C@@H](NC(=O)[C@H](Cc1ccccc1)NC(=O)[C@@H](NC(=O)CNC(=O)[C@H](CCC(N)=O)NC(=O)C(C)(C)NC(=O)[C@@H](N)Cc1c[nH]cn1)[C@@H](C)O)[C@@H](C)O)C(C)C)[C@@H](C)O)C(C)C)C(=O)N[C@@H](CC(C)C)C(=O)N[C@@H](CCC(=O)O)C(=O)NC(C)(C)C(=O)NCC(N)=O
B4: Peptide 427 (peptide)
peptide: H[Aib]QGTFTSDVSK[αMeF]LDTK([AEEA-AEEA-γGlu-C18 diacid])RARDFVQWLLE[Aib]G-NH2
modifications: N-terminus assumed
SMILES: CC(C)C[C@H](NC(=O)[C@H](Cc1c[nH]c2ccccc12)NC(=O)[C@H](CCC(N)=O)NC(=O)[C@@H](NC(=O)[C@H](Cc1ccccc1)NC(=O)[C@H](CC(=O)O)NC(=O)[C@H](CCCNC(=N)N)NC(=O)[C@H](C)NC(=O)[C@H](CCCNC(=N)N)NC(=O)[C@H](CCCCNC(=O)COCCOCCNC(=O)COCCOCCNC(=O)CC[C@H](NC(=O)CCCCCCCCCCCCCCCCC(=O)O)C(=O)O)NC(=O)[C@@H](NC(=O)[C@H](CC(=O)O)NC(=O)[C@H](CC(C)C)NC(=O)[C@](C)(Cc1ccccc1)NC(=O)[C@H](CCCCN)NC(=O)[C@H](CO)NC(=O)[C@@H](NC(=O)[C@H](CC(=O)O)NC(=O)[C@H](CO)NC(=O)[C@@H](NC(=O)[C@H](Cc1ccccc1)NC(=O)[C@@H](NC(=O)CNC(=O)[C@H](CCC(N)=O)NC(=O)C(C)(C)NC(=O)[C@@H](N)Cc1c[nH]cn1)[C@@H](C)O)[C@@H](C)O)C(C)C)[C@@H](C)O)C(C)C)C(=O)N[C@@H](CC(C)C)C(=O)N[C@@H](CCC(=O)O)C(=O)NC(C)(C)C(=O)NCC(N)=O
B5: Peptide 425 (peptide)
peptide: H[Aib]QGTFTSDVSK[αMeF]LDKK([AEEA-AEEA-γGlu-C18 diacid])RAQDFVRWLKA[Aib]G-OH
modifications: N-terminus assumed
SMILES: CC(C)C[C@H](NC(=O)[C@H](Cc1c[nH]c2ccccc12)NC(=O)[C@H](CCCNC(=N)N)NC(=O)[C@@H](NC(=O)[C@H](Cc1ccccc1)NC(=O)[C@H](CC(=O)O)NC(=O)[C@H](CCC(N)=O)NC(=O)[C@H](C)NC(=O)[C@H](CCCNC(=N)N)NC(=O)[C@H](CCCCNC(=O)COCCOCCNC(=O)COCCOCCNC(=O)CC[C@H](NC(=O)CCCCCCCCCCCCCCCCC(=O)O)C(=O)O)NC(=O)[C@H](CCCCN)NC(=O)[C@H](CC(=O)O)NC(=O)[C@H](CC(C)C)NC(=O)[C@](C)(Cc1ccccc1)NC(=O)[C@H](CCCCN)NC(=O)[C@H](CO)NC(=O)[C@@H](NC(=O)[C@H](CC(=O)O)NC(=O)[C@H](CO)NC(=O)[C@@H](NC(=O)[C@H](Cc1ccccc1)NC(=O)[C@@H](NC(=O)CNC(=O)[C@H](CCC(N)=O)NC(=O)C(C)(C)NC(=O)[C@@H](N)Cc1c[nH]cn1)[C@@H](C)O)[C@@H](C)O)C(C)C)C(C)C)C(=O)N[C@@H](CCCCN)C(=O)N[C@@H](C)C(=O)NC(C)(C)C(=O)NCC(=O)O
B6: Peptide 423 (peptide)
peptide: H[Aib]QGTFTSDVSK[αMeF]LDKK([AEEA-AEEA-γGlu-C18 diacid])RAQDFVRWLK[Aib]TE-OH
modifications: N-terminus assumed
SMILES: CC(C)C[C@H](NC(=O)[C@H](Cc1c[nH]c2ccccc12)NC(=O)[C@H](CCCNC(=N)N)NC(=O)[C@@H](NC(=O)[C@H](Cc1ccccc1)NC(=O)[C@H](CC(=O)O)NC(=O)[C@H](CCC(N)=O)NC(=O)[C@H](C)NC(=O)[C@H](CCCNC(=N)N)NC(=O)[C@H](CCCCNC(=O)COCCOCCNC(=O)COCCOCCNC(=O)CC[C@H](NC(=O)CCCCCCCCCCCCCCCCC(=O)O)C(=O)O)NC(=O)[C@H](CCCCN)NC(=O)[C@H](CC(=O)O)NC(=O)[C@H](CC(C)C)NC(=O)[C@](C)(Cc1ccccc1)NC(=O)[C@H](CCCCN)NC(=O)[C@H](CO)NC(=O)[C@@H](NC(=O)[C@H](CC(=O)O)NC(=O)[C@H](CO)NC(=O)[C@@H](NC(=O)[C@H](Cc1ccccc1)NC(=O)[C@@H](NC(=O)CNC(=O)[C@H](CCC(N)=O)NC(=O)C(C)(C)NC(=O)[C@@H](N)Cc1c[nH]cn1)[C@@H](C)O)[C@@H](C)O)C(C)C)C(C)C)C(=O)N[C@@H](CCCCN)C(=O)NC(C)(C)C(=O)N[C@H](C(=O)N[C@@H](CCC(=O)O)C(=O)O)[C@@H](C)O
B7: Peptide 422 (peptide)
peptide: H[Aib]QGTFTSDVSK[αMeF]LDRK([AEEA-AEEA-γGlu-C18 diacid])RAQDFVRWLL[Aib]TE-NH2
modifications: N-terminus assumed
SMILES: CC(C)C[C@H](NC(=O)[C@H](Cc1c[nH]c2ccccc12)NC(=O)[C@H](CCCNC(=N)N)NC(=O)[C@@H](NC(=O)[C@H](Cc1ccccc1)NC(=O)[C@H](CC(=O)O)NC(=O)[C@H](CCC(N)=O)NC(=O)[C@H](C)NC(=O)[C@H](CCCNC(=N)N)NC(=O)[C@H](CCCCNC(=O)COCCOCCNC(=O)COCCOCCNC(=O)CC[C@H](NC(=O)CCCCCCCCCCCCCCCCC(=O)O)C(=O)O)NC(=O)[C@H](CCCNC(=N)N)NC(=O)[C@H](CC(=O)O)NC(=O)[C@H](CC(C)C)NC(=O)[C@](C)(Cc1ccccc1)NC(=O)[C@H](CCCCN)NC(=O)[C@H](CO)NC(=O)[C@@H](NC(=O)[C@H](CC(=O)O)NC(=O)[C@H](CO)NC(=O)[C@@H](NC(=O)[C@H](Cc1ccccc1)NC(=O)[C@@H](NC(=O)CNC(=O)[C@H](CCC(N)=O)NC(=O)C(C)(C)NC(=O)[C@@H](N)Cc1c[nH]cn1)[C@@H](C)O)[C@@H](C)O)C(C)C)C(C)C)C(=O)N[C@@H](CC(C)C)C(=O)NC(C)(C)C(=O)N[C@H](C(=O)N[C@@H](CCC(=O)O)C(N)=O)[C@@H](C)O

What follows are binders tested against human GLP-1 receptor (human, UniProt P43220) (assay: cell-based or functional assay).

cAMP production EC50 [nM]	Binder
0.0155	B1
0.0073	B2
0.0331	B3
0.0124	B4
0.0115	B5
0.0261	B6
0.0276	B7

The binders below were run against human glucagon receptor (human, UniProt P47871) (assay: cell-based or functional assay).

cAMP production EC50 [nM]	Binder
0.129	B1
0.0612	B2
0.0105	B3
0.0472	B4
0.827	B5
2.22	B6
0.123	B7
